First the molecules themselves.
B1: Azoarcus group I ribozyme (parent)
chain: GUGCCUUGCGCCGGGAAACCACGCAAGGGAUGGUGUCAAAUUCGGCGAAACCUAAGCGCCCGCCCGGGCGUAUGGCAACGCCGAGCCAAGCUUCGGCGCCUGCGCCGAUGAAGGUGUAGAGACUAGACGGCACCCACCUAAGGCAAACGCUAUGGUGAAGGCAUAGUCCAGGGAGUGGCGAAAGUCACACAAACCGG

The data set covers variants of B1. Put plainly: reverse-splicing fitness (ratio to wild type); higher = more active; in vitro selection; Mg2+ level not given. The gist of the method: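 An in vitro group I ribozyme library with randomized positions was T7-transcribed and gel-purified. In triplicate, 10 pmol RNA in EPPS pH 7.5 was reacted with 50 pmoles of a 30-nt RNA substrate for 1 h at 37 °C across several added MgCl2 levels (1–48 mM), then stopped with EDTA. Products were reverse transcribed from a substrate-complementary primer, PCR-amplified and sequenced (HiSeq 4000). Fitness is a variant's read proportion after selection over that before, normalised to wild type.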
With C82G A120C A145G C150U U176C, the reverse-splicing fitness was 0.0797.

For C82G A120C A145G C150U U176G, the reverse-splicing fitness worked out at 0.0154.

C82G A120C A145G C150U U176A: the reverse-splicing fitness is 0.0566.

C82G A120G A145G C150G U176G: the reverse-splicing fitness stood at 0.00614.

In the case of C82G A120G A145G C150G U176C, the reverse-splicing fitness came to 0.011.

Consider C82G A120G A145G C150G U176A, for which the reverse-splicing fitness came to 0.00691.

Take C82G A120C A145U C150U: the reverse-splicing fitness turned out to be 0.11.

As to C82G A120C A145U C150G, the reverse-splicing fitness stood at 0.0201.

In the case of C82G A120C A145U C150A, the reverse-splicing fitness was 0.0209.

On to C82G A120C C150U C169U U176G, for which the reverse-splicing fitness was determined as 0.00634.

On to C82G A120C C150U C169U U176A, for which the reverse-splicing fitness stood at 0.0159.

Take C82G A120C C150U C169U U176C: the reverse-splicing fitness is 0.0162.

As to C82G A120C A145C C169G U176C, the reverse-splicing fitness stood at 0.0161.

Regarding C82G A120C A145C C169G U176A, the reverse-splicing fitness turned out to be 0.0262.

In the case of C82G A120C A145C C169G U176G, the reverse-splicing fitness stood at 0.00428.

Take C82G A120C A145G C150U C169G U176G: the reverse-splicing fitness is 0.00538.

C82G A120C A145G C150U C169G U176A: the reverse-splicing fitness was determined as 0.0139.

For C82G A120C A145G C150U C169G U176C, the reverse-splicing fitness came to 0.0205.

For the variant C82G A120G A145G C150A U176C, the reverse-splicing fitness turned out to be 0.0209.

Regarding C82G A120G A145G C150A U176A, the reverse-splicing fitness amounted to 0.011.

Turning to C82G A120G A145G C150A U176G, the reverse-splicing fitness was determined as 0.00757.

As to C82G A120C A145U C150G C169G U176C, the reverse-splicing fitness is 0.00634.

Consider C82G A120C A145U C150G C169G U176A, for which the reverse-splicing fitness turned out to be 0.00782.

For C82G A120C A145U C150G C169G U176G, the reverse-splicing fitness came out at 0.00427.

C82G A120C A145G C169G U176A: the reverse-splicing fitness came to 0.0164.

With C82G A120C A145G C169G U176C, the reverse-splicing fitness stood at 0.0241.

Consider C82G A120C A145G C169G U176G, for which the reverse-splicing fitness was 0.00417.

In the case of C82G A120C A145U C150U U176C, the reverse-splicing fitness came to 0.0672.

With C82G A120C A145U C150U U176A, the reverse-splicing fitness stood at 0.0489.

Take C82G A120C A145U C150U U176G: the reverse-splicing fitness was determined as 0.0119.

Regarding C82G A120C C150G C169G U176C, the reverse-splicing fitness amounted to 0.00574.

Regarding C82G A120C C150G C169G U176G, the reverse-splicing fitness stood at 0.00538.

On to C82G A120C C150G C169G U176A, for which the reverse-splicing fitness was determined as 0.0067.

As for C82G A120C C150A C169U U176C, the reverse-splicing fitness amounted to 0.0182.

As for C82G A120C C150A C169U U176A, the reverse-splicing fitness came out at 0.0156.

For the variant C82G A120C C150A C169U U176G, the reverse-splicing fitness came out at 0.00663.

As to C82G A120C C169G U176C, the reverse-splicing fitness was 0.0176.

In the case of C82G A120C C169G U176A, the reverse-splicing fitness is 0.0172.

As for C82G A120C C169G U176G, the reverse-splicing fitness is 0.00385.

With C82G A120C C150A U176A, the reverse-splicing fitness was 0.0182.

Take C82G A120C C150A U176C: the reverse-splicing fitness came out at 0.0287.

As for C82G A120C C150A U176G, the reverse-splicing fitness came to 0.0105.

As for C82G A120C A145C C169A U176C, the reverse-splicing fitness was 0.0062.

Take C82G A120C A145C C169A U176A: the reverse-splicing fitness was 0.0137.

C82G A120C A145C C169A U176G: the reverse-splicing fitness worked out at 0.00378.

Consider C82G A120C A145U U176C, for which the reverse-splicing fitness was determined as 0.0999.

For the variant C82G A120C A145U U176A, the reverse-splicing fitness was 0.0752.

Take C82G A120C A145U U176G: the reverse-splicing fitness came out at 0.0177.

As to C82G A120C A145G C150G C169U U176G, the reverse-splicing fitness was 0.00789.

As to C82G A120C A145G C150G C169U U176C, the reverse-splicing fitness is 0.0134.

C82G A120C A145G C150G C169U U176A: the reverse-splicing fitness came to 0.0128.

Take C82G A120G A145C C169G U176A: the reverse-splicing fitness is 0.0291.

As for C82G A120G A145C C169G U176G, the reverse-splicing fitness was 0.00393.

As for C82G A120G A145C C169G U176C, the reverse-splicing fitness came out at 0.0224.

On to C82G A120C A145G C150G C169A U176A, for which the reverse-splicing fitness was 0.0143.

Turning to C82G A120C A145G C150G C169A U176G, the reverse-splicing fitness was 0.00912.

For C82G A120C A145G C150G C169A U176C, the reverse-splicing fitness is 0.0145.

C82G A120C C169U U176A: the reverse-splicing fitness turned out to be 0.019.

Turning to C82G A120C C169U U176G, the reverse-splicing fitness worked out at 0.00468.

Take C82G A120C C169U U176C: the reverse-splicing fitness was found to be 0.0155.

Turning to C82G A120G A145C C150U C169A U176A, the reverse-splicing fitness is 0.0126.

C82G A120G A145C C150U C169A U176G: the reverse-splicing fitness stood at 0.00471.

As for C82G A120G A145C C150U C169A U176C, the reverse-splicing fitness amounted to 0.00669.

For C82G A120C C150A C169G U176C, the reverse-splicing fitness is 0.0222.

C82G A120C C150A C169G U176G: the reverse-splicing fitness amounted to 0.00501.

C82G A120C C150A C169G U176A: the reverse-splicing fitness was 0.0187.

Turning to C82G A120G A145G C169G U176A, the reverse-splicing fitness is 0.0221.

With C82G A120G A145G C169G U176C, the reverse-splicing fitness stood at 0.0345.

Consider C82G A120G A145G C169G U176G, for which the reverse-splicing fitness worked out at 0.00379.

In the case of C82G A120G A145G C150U C169G U176C, the reverse-splicing fitness worked out at 0.0245.

On to C82G A120G A145G C150U C169G U176G, for which the reverse-splicing fitness was 0.00428.

Turning to C82G A120G A145G C150U C169G U176A, the reverse-splicing fitness turned out to be 0.0169.

C82G A120G A145C C150A C169U: the reverse-splicing fitness is 0.00751.

For the variant C82G A120G A145C C150A C169A, the reverse-splicing fitness was found to be 0.00825.

On to C82G A120G A145C C150A C169G, for which the reverse-splicing fitness worked out at 0.00875.

As to C82G A120C C150U C169G U176C, the reverse-splicing fitness was 0.0162.

In the case of C82G A120C C150U C169G U176G, the reverse-splicing fitness is 0.0048.

For C82G A120C C150U C169G U176A, the reverse-splicing fitness came to 0.0141.

C82G A120C A145G C150G C169G U176G: the reverse-splicing fitness was found to be 0.00667.

Regarding C82G A120C A145G C150G C169G U176A, the reverse-splicing fitness was determined as 0.0134.

On to C82G A120C A145G C150G C169G U176C, for which the reverse-splicing fitness worked out at 0.0134.

Regarding C82G A120C C150U C169A U176G, the reverse-splicing fitness worked out at 0.00618.

For the variant C82G A120C C150U C169A U176A, the reverse-splicing fitness is 0.0177.

These data come from the RNAGym collection of RNA variant scans (doi:10.1093/molbev/msab373).
